We go through three molecules from US20070274969A1 (published 2007).

B1: T antigen deletion mutant dl89-97 (other)
chain: MDKVLNREESLQLMDLLGLERSAWGNIPLMRKAYLKKCKEFHPDKGGDEEKMKKMNTLYKKMEDGVKYAHQPDFGGFWDATEIPTYGTFNEENLFCSEEMPSSDDEATADSQHSTPPKKKRKVEDPKDFPSELLSFLSHAVFSNRTLACFAIYTTKEKAALLYKKIMEKYSVTFISRHNSYNHNILFFLTPHRHRVSAINNYAQKLCTFSFLICKGVNKEYLMYSALTRDPFSVIEESLPGGLKEHDFNPEEAEETKQVSWKLVTEYAMETKCDDVLLLLGMYLEFQYSFEMCLKCIKKEQPSHYKYHEKYYANAAIFADSKNQKTICQQAVDTVLAKKRVDSLQLTREQMLTNRFNDLLDRMDIMFGSTGSADIEEWMAGVAWLHCLLPKMDSVVYDFLKCMVYNIPKKRYWLFKGPIDSGKTTLAAALLELCGGKALNVNLPLDRLNFELGVAIDQFLVVFEDVKGTGGESRDLPSGQGINNLDNLRDYLDGSVKVNLEKKHLNKRTQIFPPGIVTMNEYSVPKTLQARFVKQIDFRPKDYLKHCLERSEFLLEKRIIQSGIALLLMLIWYRPVAEFAQSIQSRIVEWKERLDKEFSLSVYQKMKFNVAMGIGVLDWLRNSDDDDEDSQENADKNEDGGEKNMEDSGHETGIDSQSQGSFQAPQSSQSVHDHNQPYHICRGFTCFKKPPTPPPEPET
B2: human Bub1, endogenous (enzyme)
chain: MDTPENVLQMLEAHMQSYKGNDPLGEWERYIQWVEENFPENKEYLITLLEHLMKEFLDKKKYHNDPRFISYCLKFAEYNSDLHQFFEFLYNHGIGTLSSPLYIAWAGHLEAQGELQHASAVLQRGIQNQAEPREFLQQQYRLFQTRLTETHLPAQARTSEPLHNVQVLNQMITSKSNPGNNMACISKNQGSELSGVISSACDKESNMERRVITISKSEYSVHSSLASKVDVEQVVMYCKEKLIRGESEFSFEELRAQKYNQRRKHEQWVNEDRHYMKRKEANAFEEQLLKQKMDELHKKLHQVVETSHEDLPASQERSEVNPARMGPSVGSQQELRAPCLPVTYQQTPVNMEKNPREAPPVVPPLANAISAALVSPATSQSIAPPVPLKAQTVTDSMFAVASKDAGCVNKSTHEFKPQSGAEIKEGCETHKVANTSSFHTTPNTSLGMVQATPSKVQPSPTVHTKEALGFIMNMFQAPTLPDISDDKDEWQSLDQNEDAFEAQFQKNVRSSGAWGVNKIISSLSSAFHVFEDGNKENYGLPQPKNKPTGARTFGERSVSRLPSKPKEEVPHAEEFLDDSTVWGIRCNKTLAPSPKSPGDFTSAAQLASTPFHKLPVESVHILEDKENVVAKQCTQATLDSCEENMVVPSRDGKFSPIQEKSPKQALSSHMYSASLLRLSQPAAGGVLTCEAELGVEACRLTDTDAAIAEDPPDAIAGLQAEWMQMSSLGTVDAPNFIVGNPWDDKLIFKLLSGLSKPVSSYPNTFEWQCKLPAIKPKTEFQLGSKLVYVHHLLGEGAFAQVYEATQGDLNDAKNKQKFVLKVQKPANPWEFYIGTQLMERLKPSMQHMFMKFYSAHLFQNGSVLVGELYSYGTLLNAINLYKNTPEKVMPQGLVISFAMRMLYMIEQVHDCEIIHGDIKPDNFILGNGFLEQDDEDDLSAGLALIDLGQSIDMKLFPKGTIFTAKCETSGFQCVEMLSNKPWNYQIDYFGVAATVYCMLFGTYMKVKNEGGECKPEGLFRRLPHLDMWNEFFHVMLNIPDCHHLPSLDLLRQKLKKVFQQHYTNKIRALRNRLIVLLLECKRSRK
notes: mature; also called hBub1; Bub1 (U2OS cells)
B3: mouse Bub1, endogenous (enzyme)
chain: MDNLENVFRMFEAHMQSYTGNDPLGEWESFIKWVEENFPDNKEYLMTLLEHLMKEFLHKKNYHNDSRFINYCLKFAEYNSDRHQFFEFLYNQGIGTKSSYIYMSWAGHLEAQGELQHASAIFQTGIHNEAEPKELLQQQYRLFQARLTGIHLPAQATTSEPLHSAQILNQVMMTNSSPEKNSACVPKSQGSECSGVASSTCDEKSNMEQRVIMISKSECSVSSSVAPKPEAQQVMYCKEKLIRGDSEFSFEELRAQKYNQRKKHEQWVSEDRNYMKRKEANAFEEQLLKQKMDELHKKLHQVVELSHKDLPASENRPDVSLVCVGQNTCSQQELRGPSLSSISHQTSESSGEKPQEEPSVPLMVNAVNSTLLFPAANLPALPVPVSGQSLTDSRCVNQSVHEFMPQCGPETKEVCETNKVASINDFHTTPNTSLGMVQGTPCKVQPSPTVHTKEALGFIMDMFQAPTLPDISDDKDEWPSLDQNEDAFEAQFQKNAVSSGDWGVKKIMTLSSAFPIFEDGNKENYGLPQPKNKPLGARTFGERSLSKYSSRSNEMPHTDEFMDDSTVCGIRCNKTLAPSPKSIGDFTSAAQLSSTPFHKFPADLVQIPEDKENVVATQYTHMALDSCKENIVDLSKGRKLGPIQEKISASLPCPSQPATGGLFTQEAVFGLEAFKCTGIDHATVEDLSDANAGLQVECVQTLGNVNAPSFTVENPWDDELILKLLSGLSKPVTSYSNTFEWQSKLPAIKTKTEYQLGSLLVYVNHLLGEGAFAQVFEAIHGDVRNAKSEQKCILKVQRPANSWEFYIGMQLMERLKPEVHHMFIKFYSAHLFKNGSILVGELYSYGTLLNVINLYKNTSEKVMPQALVLTFAIRMLYMVEQVHSCEIIHGDIKPDNFILGHRFLEQADEDLATGLALIDLGQSIDMKLFPKGTVFTGKCETSGFQCPEMLSNKPWNYQIDYFGVAATIYCMLFGSYMKVKNEGGVWKPEGLFRRLPHLDMWEEFFHIMLNIPDCHNLPSLDFLRQNMKKLLEQQYSNKIKTLRNRLIVMLSEYKRSRK
notes: mature; also called mBub1; Bub1 (NIH3T3 cells)

The test “human Bub1, endogenous” addresses B2. As to the kind of experiment: co-immunoprecipitation from U2OS stable lines.
In a further test the target is T1, T antigen mutant D44N (SV40, UniProt P03070 1-708).
T1 construct: Defective DnaJ domain
As to the kind of experiment: co-immunoprecipitation from U2OS stable lines.

The target in test [1] is T2, SV40 large T antigen, wild-type (SV40, UniProt P03070 1-708).
T2 construct: also called wild-type T antigen; T Ag
As to the kind of experiment: co-immunoprecipitation from U2OS/T cell lysates.

Test [2] concerns the target T2, SV40 large T antigen, wild-type. Put plainly: co-immunoprecipitation from NIH3T3/T cell lysates.

Take B1: in the test with human Bub1, endogenous, the binding result is listed as “no binding”.

Turning to B2, the binding result (with T antigen mutant D44N; in test [1]) was “binds” in each case.

Consider B3, for which the binding result in test [2] is “binds”.
